Laboratory results reported in US20090018059.

How the values were obtained:
[1] = test system: OCT4 (Homo sapiens); settings: ChIP-qPCR, human HUES-6 ESCs
[2] = test system: SOX2 (Homo sapiens); settings: ChIP-qPCR, human HUES-6 ESCs
[3] = target: Oct4 (Pou5f1) (Mus musculus) (UniProt P20263); settings: ChIP-qPCR, undifferentiated mouse ESCs; 10-fold maximum after 3 days RA, none at 6 days
[4] = target: Sox2 (Mus musculus) (UniProt P48432); settings: ChIP-qPCR, undifferentiated mouse ESCs; 10-fold maximum after 3 days RA, none at 6 days
Sequence of Sox2 (Mus musculus) (P48432 whole entry): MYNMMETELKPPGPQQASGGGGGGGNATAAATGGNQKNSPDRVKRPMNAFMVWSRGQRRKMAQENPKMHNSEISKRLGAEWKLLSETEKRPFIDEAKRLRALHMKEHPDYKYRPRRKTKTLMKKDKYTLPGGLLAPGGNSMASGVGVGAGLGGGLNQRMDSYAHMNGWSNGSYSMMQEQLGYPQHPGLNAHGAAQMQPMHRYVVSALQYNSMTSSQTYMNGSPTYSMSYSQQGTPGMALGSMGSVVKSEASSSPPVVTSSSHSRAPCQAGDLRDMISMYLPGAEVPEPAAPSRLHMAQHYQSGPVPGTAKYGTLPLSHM

Sequence of Oct4 (Pou5f1) (Mus musculus) (P20263 whole entry): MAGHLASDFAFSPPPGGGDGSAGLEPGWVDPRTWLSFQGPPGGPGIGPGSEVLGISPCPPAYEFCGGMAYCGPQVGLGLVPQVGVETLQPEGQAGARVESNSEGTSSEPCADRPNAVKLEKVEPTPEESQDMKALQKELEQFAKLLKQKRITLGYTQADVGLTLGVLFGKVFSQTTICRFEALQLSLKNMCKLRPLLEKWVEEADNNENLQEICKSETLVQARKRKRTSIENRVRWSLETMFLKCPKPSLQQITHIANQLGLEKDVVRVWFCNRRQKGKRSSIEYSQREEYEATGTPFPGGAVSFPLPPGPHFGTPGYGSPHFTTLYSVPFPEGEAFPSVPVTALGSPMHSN

| Substance | binding signal (fold enrichment) [1] | binding signal (fold enrichment) [2] | binding signal (fold enrichment) [3] | binding signal (fold enrichment) [4] |
| --- | --- | --- | --- | --- |
| human NANOG promoter sox-oct region | 6 | 6 |  |  |
| mouse Nanog promoter oct-sox region (ChIP amplicon 2) |  |  | < 43 | < 37 |
